Assay results as given in IntAct's records for PubMed 29039417.

B1: Protein PTHB1 (Homo sapiens), Q3SYG4 (parent)
chain: MSLFKARDWWSTILGDKEEFDQGCLCLANVDNSGNGQDKIIVGSFMGYLRIFSPHPAKTGDGAQAEDLLLEVDLRDPVLQVEVGKFVSGTEMLHLAVLHSRKLCVYSVSGTLGNVEHGNQCQMKLMYEHNLQRTACNMTYGSFGGVKGRDLICIQSMDGMLMVFEQESYAFGRFLPGFLLPGPLAYSSRTDSFLTVSSCQQVESYKYQVLAFATDADKRQETEQQKLGSGKRLVVDWTLNIGEQALDICIVSFNQSASSVFVLGERNFFCLKDNGQIRFMKKLDWSPSCFLPYCSVSEGTINTLIGNHNNMLHIYQDVTLKWATQLPHIPVAVRVGCLHDLKGVIVTLSDDGHLQCSYLGTDPSLFQAPNVQSRELNYDELDVEMKELQKIIKDVNKSQGVWPMTEREDDLNVSVVVSPNFDSVSQATDVEVGTDLVPSVTVKVTLQNRVILQKAKLSVYVQPPLELTCDQFTFEFMTPDLTRTVSFSVYLKRSYTPSELEGNAVVSYSRPTDRNPDGIPRVIQCKFRLPLKLICLPGQPSKTASHKITIDTNKSPVSLLSLFPGFASQSDDDQVNVMGFHFLGGARITVLASKTSQRYRIQSEQFEDLWLITNELILRLQEYFEKQGVKDFACSFSGSIPLQEYFELIDHHFELRINGEKLEELLSERAVQFRAIQRRLLARFKDKTPAPLQHLDTLLDGTYKQVIALADAVEENQGNLFQSFTRLKSATHLVILLIALWQKLSADQVAILEAAFLPLQEDTQELGWEETVDAAISHLLKTCLSKSSKEQALNLNSQLNIPKDTSQLKKHITLLCDRLSKGGRLCLSTDAAAPQTMVMPGGCTTIPESDLEERSVEQDSTELFTNHRHLTAETPRPEVSPLQGVSE
partner: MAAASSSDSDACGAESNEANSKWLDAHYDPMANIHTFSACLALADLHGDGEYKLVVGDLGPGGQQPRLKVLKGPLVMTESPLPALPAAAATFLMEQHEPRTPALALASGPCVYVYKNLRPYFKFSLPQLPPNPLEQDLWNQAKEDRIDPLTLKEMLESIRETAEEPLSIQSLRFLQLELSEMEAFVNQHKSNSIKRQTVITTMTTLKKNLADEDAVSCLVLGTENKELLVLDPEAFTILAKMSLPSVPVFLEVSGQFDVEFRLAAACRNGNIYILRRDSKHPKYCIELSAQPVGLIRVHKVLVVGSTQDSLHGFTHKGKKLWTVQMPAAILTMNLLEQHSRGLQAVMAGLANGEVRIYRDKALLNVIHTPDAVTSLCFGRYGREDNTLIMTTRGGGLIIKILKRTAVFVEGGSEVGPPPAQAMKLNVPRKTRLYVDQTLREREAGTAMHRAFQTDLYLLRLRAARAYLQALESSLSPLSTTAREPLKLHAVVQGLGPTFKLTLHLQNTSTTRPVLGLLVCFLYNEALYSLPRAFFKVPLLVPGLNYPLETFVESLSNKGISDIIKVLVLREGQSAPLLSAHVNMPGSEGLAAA

Variants of: B1
Conditions: with bbs1_human BBS1, Q8NFJ9

Variant | effect of a mutation on the interaction
S561K | with no effect
S561E | with no effect
Q447E | with no effect
Q447A | with no effect
E663K | with no effect
K554A | with no effect
T697E | with no effect
T697C | disrupting interaction strength
T595K | with no effect
S555K | with no effect
V432A | with no effect
C525E | with no effect
S486E | with no effect
Y508A | with no effect
V629A | with no effect
S541A | with no effect
R683A | with no effect
A690E | with no effect
A690V | disrupting interaction strength
F636E | with no effect
L559E | with no effect
L559K | with no effect

Variant | effect of a mutation on the interaction
L616E | with no effect
L616A | with no effect
R674K | with no effect
E664A | with no effect
K532A | with no effect
T484K | with no effect
P419A | with no effect
V430K | with no effect
D571K | with no effect
P530A | with no effect
T482A | with no effect
S593A | with no effect
Q524A | with no effect
T441K | with no effect
T549K | with no effect
P463K | with no effect
A682E | with no effect
F606K | with no effect
I588K | with no effect
Q574E | with no effect
Q574A | with no effect
S570K | with no effect

Variant | effect of a mutation on the interaction
P520E | with no effect
Y495A | with no effect
Y495E | with no effect
T405K | with no effect
T405A | with no effect
Q621K | with no effect
K454A | with no effect
R679A | with no effect
L531K | with no effect
L698K | with no effect
V424A | with no effect
S458E | with no effect
N412K | with no effect
K685E | with no effect
Q569A | with no effect
L680E | with no effect
L680K | with no effect
P438A | with no effect
C469K | with no effect
G518A | with no effect
S667E | with no effect
S637E | with no effect

Variant | effect of a mutation on the interaction
H581K | with no effect
E475A | with no effect
F566K | with no effect
W610E | with no effect
V440K | with no effect
L436A | with no effect
L436E | with no effect
L695K | with no effect
V505K | with no effect
K630A | with no effect
L491K | with no effect
R598A | with no effect
R598K | with no effect
A567K | with no effect
S498A | with no effect
L692R | disrupting interaction strength
G502R | disrupting interaction strength
R510E | with no effect
N515A | with no effect
N576K | with no effect
L611A | with no effect
N658K | with no effect

Variant | effect of a mutation on the interaction
I519K | with no effect
F421E | with no effect
L699K | disrupting interaction strength
L699E | with no effect
I548K | with no effect
V442E | with no effect
G585A | with no effect
G585R | disrupting interaction strength
S494K | with no effect
D572A | with no effect
D696K | with no effect
G433A | with no effect
D480E | with no effect
D480A | with no effect
Q462E | with no effect
Q462A | with no effect
N420A | with no effect
V506A | with no effect
I676K | with no effect
I676E | with no effect
T613A | with no effect

Next, values leading:

effect of a mutation on the interaction | Variant
with no effect | H732A
with no effect | P877K
with no effect | L851E
with no effect | A872E
with no effect | F724A
with no effect | A710E
with no effect | K810E
with no effect | E857A
with no effect | G718A
with no effect | N800A
with no effect | E848K
with no effect | E848A
with no effect | Q742K
with no effect | Q798E
with no effect | H811K
with no effect | D804A
with no effect | T865K
with no effect | W768K
with no effect | L808K
with no effect | Q764A
with no effect | Q764E
with no effect | S860A
with no effect | I776A
with no effect | I776E
with no effect | P881E

effect of a mutation on the interaction | Variant
with no effect | S787E
with no effect | G841A
disrupting interaction strength | G701R
with no effect | G701A
with no effect | P834E
disrupting interaction strength | V734G
with no effect | A739E
with no effect | L827A
with no effect | V772A
with no effect | G767E
with no effect | G767K
with no effect | M839A
with no effect | D817K
disrupting interaction strength | D817N
with no effect | A708E
with no effect | S788E
with no effect | S788A
with no effect | L740E
with no effect | K786A
with no effect | L815A
with no effect | L825K
with no effect | V838E
with no effect | E753A
with no effect | E761K
with no effect | L720K

effect of a mutation on the interaction | Variant
with no effect | C826A
with no effect | Q748K
with no effect | G823E
with no effect | K728A
with no effect | F864A
with no effect | T763E
with no effect | S828A
with no effect | A755E
disrupting interaction strength | D747N
with no effect | P758A
with no effect | Q791A
with no effect | L795A
with no effect | S849A
with no effect | P875K
with no effect | T813E
with no effect | I707E
with no effect | T844E
with no effect | L757E
disrupting interaction strength | L757I
with no effect | S855K
with no effect | V885E
with no effect | M837K
with no effect | K803A
with no effect | K803E
